Patent publication US20230312672A1 (published 2023)

Biological target: T1, CD20 peptide on HLA-A*02:01 (human)
T1 peptide: SLFLGILSV
Test: multimer staining

- binding result: recognises
B1: TCR 79B2 (TCR, V domains shown)
Valpha: GEQVEQLPSILRVQEGSSASINCSYEDSASNYFPWYKQEPGENPKLIIDIRSNMERKQIQELIVLLDKKAKRFSLHITDTQPGDSAMYFCAASANTGANTGKLTFGHGTILRVHP
Vbeta: ETAVFQTPNYHVTQVGNEVSFNCKQTLGHDTMYWYKQDSKKLLKIMFSYNNKQLIVNETVPRRFSPQSSDKAHLNLRIKSVEPEDSAVYLCASSWGLGSYEQYFGPGTRLTVL
